Experimental findings from the supplement of paper PMC9170038 are described below.

This series deals with MS2 coat protein. The series can be described thus: apparent KD of MS2 coat protein; designed switch direction (-1 OFF switch, 1 ON switch): -1; higher = weaker reporter binding. The method in brief: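 An oligonucleotide input, 200 uM small-molecule ligand, or no input was present during titration of SNAP-549-labelled MS2 coat protein, which was doubled from 0.7 or 1.5 nM to 3 µM. Designed RNA switches had been transcribed on Illumina chips by stalled E. coli RNA polymerase. Apparent KD per design is the median over clusters of curves fitted to normalised cluster fluorescence.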

The mark [1] stands for this setting: Eterna round: R95, input ligand: microRNA oligo, concentration not stated.
Where [2] appears, read: Eterna round: R95, input ligand: FMN 200 uM.
The mark [3] stands for this setting: Eterna round: R95, input ligand: none.
Setting [4] is: input ligand: microRNA oligo, concentration not stated.

“GUGUAGUCAGGAUAUACAUAGGAAGAUAAUAUAAUAUAAGUACAUGAGGAUCACCCAUGUAGAAGGGACAGUGU [Excluse me!! 9 - Jieux - Exclusion 2] (puzzle: Exclusion 2)”: the “apparent KD of MS2 coat protein” value under setting [1] was found to be 35.6 nM.
Turning to “AGUAGAUCUACGCUUGCGUGGAUCUGCAAUGCAAGUGUUACAUGAGGAUCACCCAUGUCCUCAUUUGCUCGUCUUAG [JL turnoff v2 99.05] (puzzle: Sensor v3, turn-off variant 2)”, the “apparent KD of MS2 coat protein” value came to 41.4 nM under setting [2], 108 nM under setting [1] and 45.4 nM under setting [3].
The like results for “UGGGUUCUCCAUAGAAGUAACAUGAGGAUCACCCAUGUAGGGCAAGUUUUUUGCUCGUCAUAGGUUGUGGGUUUGGA [JR_SV3TOV1_Sub018] (puzzle: Sensor v3, turn-off variant 1)” were, in that order, 578 nM, 491 nM and 660 nM.
“CUAAAUCAUGUAGGAUAUGCGUGGCGAAGCUAUGCAGAAGGACAUGAGGAUCACCCAUGUUCUUCCGUCUGCGUACAGACGGAA [JL ENG1 1.18] (Eterna round: R96, puzzle: Exclusion NG 1)”: the “apparent KD of MS2 coat protein” value was found to be 316 nM (input ligand: FMN 200 uM), 28.7 nM under setting [4] and 38 nM (input ligand: none).
As to “AAAUCGUGAGGAUAUCCAAUAUAUGACAUGAGGAUCACCCAUGUUUCCACUCGUACCUCCGGAGAAGGCACAGUUA [Ex5 #73] (Eterna round: R97, puzzle: Exclusion 5)”, the “apparent KD of MS2 coat protein” value turned out to be 24.7 nM (input ligand: FMN 200 uM) and 26.3 nM (input ligand: none).
With “GCUCAGUAAGGAUAUUGUUUAGGAGCUAUAGGCGUAGUUAACAAGAAGGUACAUGAGGAUCACCCAUGUCCAUC [Eternabot (L2) Solution 36] (Eterna round: R97, puzzle: Exclusion 4)”, the “apparent KD of MS2 coat protein” value (input ligand: FMN 200 uM) was 17.7 nM and the “apparent KD of MS2 coat protein” value (input ligand: none) was determined as 15.1 nM.
Regarding “AUUUAGAGAGGAUAUAUAAAGUGAAACAUGAGGAUCACCCAUGUAAUUUUAUGGAUGUAAAUAGAAGGCUCAUUUU [Mat - Exclusion 5 - JL mod - D3] (puzzle: Exclusion 5)”, under setting [1], the “apparent KD of MS2 coat protein” value came to 36.5 nM.
Take “AUUGAAUGAAACCUCUAAUACAUGAGGAUCACCCAUGUUAUCGAGGAUAUGCAGAAUAGAUUAGAGCAGAAGGCGAAGUAAUAU [JR_ExcNG3_Sub024] (Eterna round: R96, puzzle: Exclusion NG 3)”: the “apparent KD of MS2 coat protein” value (input ligand: FMN 200 uM) came to 17.7 nM, the “apparent KD of MS2 coat protein” value under setting [4] came to 9.67 nM and the “apparent KD of MS2 coat protein” value (input ligand: none) worked out at 12.8 nM.
For “AAAGCGUGAGGAUAUGAGGCGCCGGGCCGGUUGGUGCGGAUUCAGAAGGCACAUGAGGAUCACCCAUGUCGGUA [Excls4-IV] (puzzle: Exclusion 4)”, under setting [1], the “apparent KD of MS2 coat protein” value was determined as 37.2 nM.
Consider “UGAGGACAUGAGGAUCACCCAUGUAAGGAUAUGCGGAGAGCUUGGAGAGGUUGAGGAGGCAGAAGGUACAGGAC [JR_Exclu1_Sub048] (puzzle: Exclusion 1)”, for which the “apparent KD of MS2 coat protein” value was determined as 47.7 nM under setting [2], 48.3 nM under setting [1] and 57 nM under setting [3].
For “CGCAAAACCGUAAGGAUAUCCUUUCCGAAAGGGACGGAGAAGGUACAUGAGGAUCACCCAUGUCCUCCGAGCUG [Eternabot (Original) Solution 18] (Eterna round: R97, puzzle: Brourd's mod of Exclusion 4)”, the “apparent KD of MS2 coat protein” value was determined as 20.6 nM (input ligand: FMN 200 uM) and 18 nM (input ligand: none).
“CUAGGGCGCAUUUAAACGCCCUAACAUGAGGAUCACCCAUGUCAGGAUAUGUAGGCAAAGACCCUACAGAAGGGACAUGUCCUA [Lainceso] (Eterna round: R96, puzzle: Exclusion NG 3)”: the “apparent KD of MS2 coat protein” value is 264 nM (input ligand: FMN 200 uM), 57.1 nM under setting [4] and 72.7 nM (input ligand: none).
Turning to “GAGAAUUUAUAGGAUAUCGUAUGGAUAAUUUAACGAGAAGGAUGAACAUGAGGAUCACCCAUGUGGUAUCAUGG [JL-ex6-3.14] (puzzle: Exclusion 6)”, the “apparent KD of MS2 coat protein” value under setting [2] was 270 nM, the “apparent KD of MS2 coat protein” value under setting [1] came to 280 nM and the “apparent KD of MS2 coat protein” value under setting [3] came to 247 nM.
Regarding “GGGAAGAACCAACAAGUAUACAUGAGGAUCACCCAUGUUCCUAGUGGGUAUGUAAAGAUUAAGAGAGCUCGUCUUAU [AK-miRNA-r3-10] (Eterna round: R97, puzzle: Sensor, turn-off variant 1)”, the “apparent KD of MS2 coat protein” value reads like this: (input ligand: FMN 200 uM) 66.9 nM; (input ligand: none) 75.3 nM.
With “UGCAUGUCAGGAUAUCGUGCAUACAACGAAAGUUCUAUGUGCGAGAAGGGACAUGAGGAUCACCCAUGUCUUAG [Omei Ex4 A18] (Eterna round: R97, puzzle: Exclusion 4)”, the “apparent KD of MS2 coat protein” value reads like this: (input ligand: FMN 200 uM) 67.1 nM; (input ligand: none) 22.6 nM.
For the sequence “AUCAGCUCGUGAGGAUAUACAUGAGGAUCACCCAUGUGAUCAAUAGCAGCUUCGGCUGCAUACAUGUAGAAGGCACGAGCUGAU [ENG2/6-A3] (Eterna round: R96, puzzle: Exclusion NG 2)”, the “apparent KD of MS2 coat protein” value by setting is: (input ligand: FMN 200 uM) 95.6 nM; under setting [4], 19.9 nM; (input ligand: none) 135 nM.
Regarding “GAUCACUGAGGAUAUACACAGAUACAAAGUAUCUGACGGUGACAUGAGGAUCACCCAUGUAGAAGGCAGAGGUC [Omei Ex2 B2] (Eterna round: R97, puzzle: Exclusion 2)”, the “apparent KD of MS2 coat protein” value reads like this: (input ligand: FMN 200 uM) 360 nM; (input ligand: none) 696 nM.
“UGAGCAUCAGGAUAUACAAGGCGACCGUGAGGUCGAAGGUUACAUGAGGAUCACCCAUGUAGAAGGGAUGUUCU [jl-ex2-4.11] (Eterna round: R97, puzzle: Exclusion 2)”: the “apparent KD of MS2 coat protein” value was determined as 49.4 nM (input ligand: FMN 200 uM) and 25.4 nM (input ligand: none).
For “GCGUACAGCCUAAGCAGUGACAUGAGGAUCACCCAUGUACGAACGUUUACCAAGCUUGUCUUAAUACCAUUAUAAAU [Eternabot (L1) Solution 20] (Eterna round: R97, puzzle: Sensor, turn-off variant 1)”, the “apparent KD of MS2 coat protein” value was found to be 23.7 nM (input ligand: FMN 200 uM) and 28.9 nM (input ligand: none).
Consider “AACAUGUUAGGAUAUGGUCCUGUGCCACAUGGAGGUUUAGGUUAGAAGGGACAUGAGGAUCACCCAUGUUAAAU [Eternabot (L2) Solution 39] (Eterna round: R97, puzzle: Exclusion 4)”, for which the “apparent KD of MS2 coat protein” value was found to be 168 nM (input ligand: FMN 200 uM) and 183 nM (input ligand: none).
As for “UACAAGCUUUUAAGAUCCUACAUGAGGAUCACCCAUGUGCUCGUCUUGUAACGUACUGUGACGAAAGUCACGGUACG [JL TOV1 3.22] (Eterna round: R97, puzzle: Sensor, turn-off variant 1)”, the “apparent KD of MS2 coat protein” value is 206 nM (input ligand: FMN 200 uM) and 220 nM (input ligand: none).
Regarding “AAAUACAAGUAAAGAUCCUACAUGAGGAUCACCCAUGUGCUCGUCUUGUAAAGUACUAUCACGAAAGUGAUAGUACU [Mat - Sensor v3 - turn-off var 1 - Eli Mod - D87] (puzzle: Sensor v3, turn-off variant 1)”, the “apparent KD of MS2 coat protein” value runs as follows: under setting [2], 45.3 nM; under setting [1], 29.7 nM; under setting [3], 47.7 nM.
Turning to “GACCAGGUAGGAUAUGCAGGGUCGGACUUGAGGAUCACCCAAGUGGCCAAAGUGCGUCCCGCAGAAGGGCCGAAAA [Isisusge] (Eterna round: R97, puzzle: Exclusion 5)”, the “apparent KD of MS2 coat protein” value was found to be 215 nM (input ligand: FMN 200 uM) and 1230 nM (input ligand: none).
For the sequence “AAAACUAACACGAAAGUGUUAGAAUAAUAAGCUUGUGGUACAUGAGGAUCACCCAUGUCCUCAUAAGCUCGUCUUAU [Mat - Sensor v3 - Turn-off var 2 - D45] (puzzle: Sensor v3, turn-off variant 2)”, the “apparent KD of MS2 coat protein” value reads like this: under setting [2], 28 nM; under setting [1], 46.4 nM; under setting [3], 25.8 nM.
On to “CAGAAACAUGAGGAUCACCCAUGUGAGGAUAUGCGUACGUUGUCCGUAGGCGACGUGCGCAGAAGGCACAAAGG [Mat - Mod of JL D84] (puzzle: Exclusion 1)”, for which, under setting [1], the “apparent KD of MS2 coat protein” value is 111 nM.
“ACUAGAUGAGGAUAUACACAUUUUAGUGUUCCUCUAGAUUAACAUGAGGAUCACCCAUGUAGAAGGCAUCAAUU [Exclusion 2 - 11] (Eterna round: R96, puzzle: Exclusion 2)”: the “apparent KD of MS2 coat protein” value runs as follows: (input ligand: FMN 200 uM) 294 nM; under setting [4], 52.8 nM; (input ligand: none) 63 nM.
For the sequence “GCAGGCUUUUGCUCGCCUUACAUGAGGAUCACCCAUGUGGGCCCGGGCCCGGGCCCGCCGGGCCCGGGCCCGGGCCC (Eterna round: R97, puzzle: Sensor, turn-off variant 1)”, the “apparent KD of MS2 coat protein” value reads like this: (input ligand: FMN 200 uM) 30.8 nM; (input ligand: none) 32.1 nM.
For the sequence “GCCUUAUCGGUCAGGAUAUACACCCGUCACUUGUUGUAGAAGGGACAUGAGGAUCACCCAUGUACAUUACAUUG [alecazam37] (Eterna round: R97, puzzle: Brourd's mod of Exclusion 4)”, the “apparent KD of MS2 coat protein” value reads like this: (input ligand: FMN 200 uM) 31.3 nM; (input ligand: none) 26 nM.
As for “GAGUGACAUGAGGAUCACCCAUGUGAGGAUAUCGGACGGACCUAGUUAGCUUCCGCCGCGAGAAGGCACAUCGG [Exclusion 1 V24] (puzzle: Exclusion 1)”, under setting [1], the “apparent KD of MS2 coat protein” value was 63.1 nM.
For “AAAAGCUCAGUCAGGAUAUGCAUUUGCACCGGCGAGCAGAAGGGACAUGAGGAUCACCCAUGUACGCGGCAGGG [Laaraor] (puzzle: Brourd's mod of Exclusion 4)”, the “apparent KD of MS2 coat protein” value runs as follows: under setting [2], 80.8 nM; under setting [1], 37.1 nM; under setting [3], 59.9 nM.
As for “GGUUGGCGAGGAUAUACAUGAGGAUCACCCAUGUGGUCCUGUGGCUAAAAAAACCUUUGUAGAAGGCGCGGGUC [salish99_ex3_r4_030] (Eterna round: R97, puzzle: Exclusion 3)”, the “apparent KD of MS2 coat protein” value (input ligand: FMN 200 uM) was determined as 173 nM and the “apparent KD of MS2 coat protein” value (input ligand: none) came out at 149 nM.
